Blank lines part the entries; values can stand above or below the binder they belong to.
Legend:
[1] = target: T1, 人PD-L1胞外段 (SEQ ID No.22 第19-238位)，带His标签 (human, UniProt Q9NZQ7 19-238); assay: bridging ELISA: human PD-L1-His coated, bispecific antibody, then human CD137-mouse Fc, goat anti-mouse HRP
T1 construct: It may be the same preparation as m7; not shown: His tag

[2] = target: T2, 人CD137全长 (SEQ ID No.19)，表达于细胞 (human, UniProt Q07011 24-255); assay: flow cytometry (FACS) on CHO-K1/hCD137 cells, goat anti-human FITC; 4-parameter logistic fit
T2 construct: The full-length entry was transfected into CHO-K1 cells for FACS and into HEK293 cells for the reporter assay; also called CHO-K1/hCD137; 细胞表面人CD137

[3] = target: T2, 人CD137全长 (SEQ ID No.19)，表达于细胞; assay: flow cytometry (FACS) on CHO-K1/hCD137 cells, goat anti-human FITC; antibody at 0.342935528 nM
[4] = target: T2, 人CD137全长 (SEQ ID No.19)，表达于细胞; assay: flow cytometry (FACS) on CHO-K1/hCD137 cells, goat anti-human FITC; antibody at 3.086419753 nM
[5] = target: T2, 人CD137全长 (SEQ ID No.19)，表达于细胞; assay: flow cytometry (FACS) on CHO-K1/hCD137 cells, goat anti-human FITC; antibody at 83.33333333 nM
[6] = target: T3, 人PD-L1全长 (SEQ ID No.22)，表达于CHO-K1细胞 (human, UniProt Q9NZQ7 19-290); assay: flow cytometry (FACS) on CHO-K1/hPD-L1 cells, goat anti-human FITC
T3 construct: The full-length entry was transfected; also called CHO-K1/hPD-L1; 细胞表面人PD-L1

[7] = target: T2, 人CD137全长 (SEQ ID No.19)，表达于细胞; assay: flow cytometry (FACS) on CHO-K1/hCD137 cells, goat anti-human FITC; antibody at 27.77777778 nM
[8] = target: T4, 人PD-L1胞外段 (SEQ ID No.22 第19-238位) (human, UniProt Q9NZQ7 19-238); assay: ELISA, human PD-L1 extracellular domain coated, goat anti-human HRP
T4 construct: also called 人PD-L1抗原

[9] = target: T2, 人CD137全长 (SEQ ID No.19)，表达于细胞; assay: flow cytometry (FACS) on CHO-K1/hCD137 cells, goat anti-human FITC; antibody at 1.028806584 nM
[10] = target: T2, 人CD137全长 (SEQ ID No.19)，表达于细胞; assay: flow cytometry (FACS) on CHO-K1/hCD137 cells, goat anti-human FITC; antibody at 9.259259259 nM
[11] = target: T2, 人CD137全长 (SEQ ID No.19)，表达于细胞; assay: flow cytometry (FACS) on CHO-K1/hCD137 cells, goat anti-human FITC; antibody at 250 nM
[12] = target: T5, 猴PD-L1胞外段 (SEQ ID No.23) (monkey, UniProt Q9NZQ7 19-238 (human entry)); assay: ELISA, monkey PD-L1 extracellular domain coated, goat anti-human HRP
T5 construct: Expressed in HEK293; no tag is stated; also called 猴PD-L1抗原

[13] = target: T6, 猴CD137胞外段 (SEQ ID No.20) (monkey, UniProt Q07011 24-186 (human entry)); assay: ELISA, monkey CD137 extracellular domain coated, goat anti-human HRP
T6 construct: Expressed in HEK293; no tag is stated; also called 猴CD137抗原
T6 chain: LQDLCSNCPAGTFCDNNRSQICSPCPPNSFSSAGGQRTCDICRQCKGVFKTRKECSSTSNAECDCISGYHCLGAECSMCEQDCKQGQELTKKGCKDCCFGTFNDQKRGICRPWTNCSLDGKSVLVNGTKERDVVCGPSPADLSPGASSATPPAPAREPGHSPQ

T2 sequence (Q07011 24-255 limits assumed): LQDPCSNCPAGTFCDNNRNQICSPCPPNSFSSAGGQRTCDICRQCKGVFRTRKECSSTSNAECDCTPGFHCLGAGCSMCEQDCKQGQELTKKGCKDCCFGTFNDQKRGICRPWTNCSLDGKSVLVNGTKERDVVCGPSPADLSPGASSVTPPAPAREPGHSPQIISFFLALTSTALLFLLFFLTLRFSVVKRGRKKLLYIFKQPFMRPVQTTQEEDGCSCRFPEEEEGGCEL
T3 sequence (Q9NZQ7 19-290 limits assumed): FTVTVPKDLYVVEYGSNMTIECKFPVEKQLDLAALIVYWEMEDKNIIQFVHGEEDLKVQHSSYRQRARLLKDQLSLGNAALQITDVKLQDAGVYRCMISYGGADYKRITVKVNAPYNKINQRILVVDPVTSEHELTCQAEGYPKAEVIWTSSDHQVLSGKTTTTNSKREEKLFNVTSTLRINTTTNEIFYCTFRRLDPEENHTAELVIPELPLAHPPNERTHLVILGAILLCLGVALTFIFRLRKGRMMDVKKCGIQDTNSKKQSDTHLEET
T1 sequence (Q9NZQ7 19-238): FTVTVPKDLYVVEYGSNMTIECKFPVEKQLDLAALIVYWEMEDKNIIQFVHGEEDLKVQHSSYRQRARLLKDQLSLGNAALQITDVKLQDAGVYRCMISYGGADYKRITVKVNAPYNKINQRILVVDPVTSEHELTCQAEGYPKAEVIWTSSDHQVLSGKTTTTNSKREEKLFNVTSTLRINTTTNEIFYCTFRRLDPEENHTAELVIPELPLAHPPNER
T4 sequence (Q9NZQ7 19-238): as above
T5 sequence (Q9NZQ7 other isoform, or with tags, fused parts or gaps): as the sequence (Q9NZQ7 19-238) above, with A33T, A34S, S62N, R68Q, Q82R, F173L, T185A, T192I, H215L counted along it

binding result [1]: binds
EC50 [2]: 14.4 nM
FACS signal (read-out name not given) [3]: 2680
FACS signal (read-out name not given) [4]: 4096
FACS signal (read-out name not given) [5]: 16100
binding result [6]: binds
FACS signal (read-out name not given) [7]: 12100
binding result [8]: binds
FACS signal (read-out name not given) [9]: 3020
FACS signal (read-out name not given) [10]: 8000
FACS signal (read-out name not given) [11]: 16200
B1: 抗人PD-L1/CD137双特异性抗体 结构B (1st scFv-L1-Fc-L2-2nd Fab) (bispecific antibody, human IgG4 S228P, kappa, F234A L235A)
heavy: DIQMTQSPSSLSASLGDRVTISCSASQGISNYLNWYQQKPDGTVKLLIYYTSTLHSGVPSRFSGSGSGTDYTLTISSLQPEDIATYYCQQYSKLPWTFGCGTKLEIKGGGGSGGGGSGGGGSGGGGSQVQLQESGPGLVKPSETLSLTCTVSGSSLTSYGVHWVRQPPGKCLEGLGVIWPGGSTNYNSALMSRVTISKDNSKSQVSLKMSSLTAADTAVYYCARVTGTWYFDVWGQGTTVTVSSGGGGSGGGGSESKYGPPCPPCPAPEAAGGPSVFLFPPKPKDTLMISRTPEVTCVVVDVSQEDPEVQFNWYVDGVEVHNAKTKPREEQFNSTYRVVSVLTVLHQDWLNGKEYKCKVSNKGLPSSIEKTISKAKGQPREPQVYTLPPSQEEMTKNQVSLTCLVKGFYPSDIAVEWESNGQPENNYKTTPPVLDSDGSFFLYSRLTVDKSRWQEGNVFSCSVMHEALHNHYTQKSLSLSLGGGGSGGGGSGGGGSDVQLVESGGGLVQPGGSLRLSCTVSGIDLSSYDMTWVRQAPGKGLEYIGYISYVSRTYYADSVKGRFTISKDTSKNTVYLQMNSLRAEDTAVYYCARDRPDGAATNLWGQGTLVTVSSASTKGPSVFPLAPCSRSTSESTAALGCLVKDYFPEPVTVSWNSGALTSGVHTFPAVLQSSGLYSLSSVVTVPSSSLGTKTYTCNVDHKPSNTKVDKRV
light: DIQMTQSPSTLSASVGDRVTITCQSSQNVYSNNRLSWYQQKPGKAPKLLIYWTSFLASGVPSRFSGSGSGTEFTLTISSLQPDDFATYYCAGGYSGNLYTFGQGTKLEIKRTVAAPSVFIFPPSDEQLKSGTASVVCLLNNFYPREAKVQWKVDNALQSGNSQESVTEQDSKDSTYSLSSTLTLSKADYEKHKVYACEVTHQGLSSPVTKSFNRGEC
notes: Anti-CD137 scFv at the N-terminus of human IgG4 Fc, anti-PD-L1 Fab at its C-terminus; also called B结构

EC50 [2]: 12.4 nM
FACS signal (read-out name not given) [3]: 2590
FACS signal (read-out name not given) [4]: 2920
FACS signal (read-out name not given) [5]: 16700
FACS signal (read-out name not given) [7]: 14600
FACS signal (read-out name not given) [9]: 2620
FACS signal (read-out name not given) [10]: 7390
FACS signal (read-out name not given) [11]: 16600
B2: 抗人PD-L1/CD137双特异性抗体 结构D3 (D1的突变分子) (bispecific antibody, human IgG4 S228P, kappa, F234A L235A)
heavy: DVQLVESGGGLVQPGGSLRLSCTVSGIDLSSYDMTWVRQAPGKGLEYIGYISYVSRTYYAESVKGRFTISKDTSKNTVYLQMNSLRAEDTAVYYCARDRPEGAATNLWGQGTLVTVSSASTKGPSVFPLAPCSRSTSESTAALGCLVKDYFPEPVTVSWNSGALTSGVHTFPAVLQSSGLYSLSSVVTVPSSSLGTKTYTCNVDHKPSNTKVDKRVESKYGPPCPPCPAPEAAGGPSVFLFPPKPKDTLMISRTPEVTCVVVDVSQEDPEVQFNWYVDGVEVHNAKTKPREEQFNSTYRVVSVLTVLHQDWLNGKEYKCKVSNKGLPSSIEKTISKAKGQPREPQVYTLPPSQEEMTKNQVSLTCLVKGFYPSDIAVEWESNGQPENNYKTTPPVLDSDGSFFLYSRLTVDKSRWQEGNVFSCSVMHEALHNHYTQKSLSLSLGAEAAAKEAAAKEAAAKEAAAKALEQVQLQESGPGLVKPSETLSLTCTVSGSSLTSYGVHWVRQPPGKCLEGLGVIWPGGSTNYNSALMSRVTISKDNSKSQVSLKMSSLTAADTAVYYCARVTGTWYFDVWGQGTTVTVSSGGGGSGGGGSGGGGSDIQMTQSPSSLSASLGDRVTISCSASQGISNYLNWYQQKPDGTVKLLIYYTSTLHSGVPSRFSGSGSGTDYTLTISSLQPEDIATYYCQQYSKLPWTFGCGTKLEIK
light: B1 light
notes: Mutant of D1; also called D3结构

binding result [1]: binds
EC50 [2]: 16.4 nM
binding result [12]: binds
FACS signal (read-out name not given) [3]: 2620
FACS signal (read-out name not given) [4]: 3930
FACS signal (read-out name not given) [5]: 15400
binding result [6]: binds
FACS signal (read-out name not given) [7]: 11100
binding result [8]: binds
FACS signal (read-out name not given) [9]: 2770
binding result [13]: binds
FACS signal (read-out name not given) [10]: 7030
FACS signal (read-out name not given) [11]: 15300
B3: 抗人PD-L1/CD137双特异性抗体 结构D6 (D2的突变分子) (bispecific antibody, human IgG4 S228P, kappa, F234A L235A)
heavy: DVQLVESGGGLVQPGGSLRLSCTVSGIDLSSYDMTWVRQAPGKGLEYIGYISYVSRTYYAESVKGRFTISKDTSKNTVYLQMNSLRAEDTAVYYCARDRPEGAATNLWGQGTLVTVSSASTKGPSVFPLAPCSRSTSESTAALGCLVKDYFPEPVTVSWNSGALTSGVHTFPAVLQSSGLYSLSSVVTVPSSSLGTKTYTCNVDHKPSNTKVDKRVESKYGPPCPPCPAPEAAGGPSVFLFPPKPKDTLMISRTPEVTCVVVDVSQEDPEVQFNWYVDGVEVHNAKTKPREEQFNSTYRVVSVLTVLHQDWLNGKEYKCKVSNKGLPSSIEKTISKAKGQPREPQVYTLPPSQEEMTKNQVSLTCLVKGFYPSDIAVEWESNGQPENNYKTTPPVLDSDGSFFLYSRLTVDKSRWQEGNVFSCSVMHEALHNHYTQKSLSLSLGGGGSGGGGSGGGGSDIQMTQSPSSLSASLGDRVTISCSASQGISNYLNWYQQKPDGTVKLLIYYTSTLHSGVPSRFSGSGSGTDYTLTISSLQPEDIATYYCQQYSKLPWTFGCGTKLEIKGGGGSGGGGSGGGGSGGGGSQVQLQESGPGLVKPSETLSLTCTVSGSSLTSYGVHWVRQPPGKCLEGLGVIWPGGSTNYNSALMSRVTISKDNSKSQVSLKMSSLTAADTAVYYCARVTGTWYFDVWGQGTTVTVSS
light: B1 light
notes: Mutant of D2; also called D6结构
